The values below come from the RNAGym collection of RNA variant scans (doi:10.7554/elife.80360).

Sequences and labels used below:
B1: CPEB3 Ribozyme (parent)
chain: GGGGGCCACAGCAGAAGCGUUCACGUCGCGGCCCCUGUCAGAUUCUGGUGAAUCUGCGAAUUCUGCUGU

The variants in the data set derive from B1. Briefly: self-cleavage, relative activity (ratio to wild type); higher = more cleavage; co-transcriptional.
On to GGGGGCCACAGCAGAAGCGUUCACGUCGCGGCCCCUGUCAGAUUCUGGUGAAUCUGCGAAUUAUGCAGU, for which the self-cleavage turned out to be 0.757. In the case of GGGGGCCACAGCAGAAGCGUUCACGUCGCGGCCCCUGUCAGAUUCUGGUGAAUCUGCGAAUUAUGCCGU it was 0.651; in that of GGGGGCCACAGCAGAAGCGUUCACGUCGCGGCCCCUGUCAGAUUCUGGUGAAUCUGCGAAUGCUGCUGU, 0.925; in that of GGGGGCCACAGCAGAAGCGUUCACGUCGCGGCCCCUGUCAGAUUCUGGUGAAUCUGCGAAUCCUGCUGU, 0.927. In the case of GGGGGCCACAGCAGAAGCGUUCACGUCGCGGCCCCUGUCAGAUUCUGGUGAAUCUGCGAAUACUGCUGU it was 0.957. For the variant GGGGGCCACAGCAGAAGCGUUCACGUCGCGGCCCCUGUCAGAUUCUGGUGAAUCUGCGAAUUAUGCUUU, the self-cleavage came out at 0.878. For the variant GGGGGCCACAGCAGAAGCGUUCACGUCGCGGCCCCUGUCAGAUUCUGGUGAAUCUGCGAAUUAUGCUAU, the self-cleavage was determined as 0.964. For the variant GGGGGCCACAGCAGAAGCGUUCACGUCGCGGCCCCUGUCAGAUUCUGGUGAAUCUGCGAAUUAUGCUCU, the self-cleavage was found to be 0.931.

On to GGGGGCCACAGCAGAAGCGUUCACGUCGCGGCCCCUGUCAGAUUCUGGUGAAUCUGCGAAUGCUGCAGU, for which the self-cleavage came out at 0.764. On to GGGGGCCACAGCAGAAGCGUUCACGUCGCGGCCCCUGUCAGAUUCUGGUGAAUCUGCGAAUUAUUCUGU, for which the self-cleavage was 0.789. In the case of GGGGGCCACAGCAGAAGCGUUCACGUCGCGGCCCCUGUCAGAUUCUGGUGAAUCUGCGAAUUAUACUGU it was 0.509; in that of GGGGGCCACAGCAGAAGCGUUCACGUCGCGGCCCCUGUCAGAUUCUGGUGAAUCUGCGAAUCCUGCUGC, 1.03. Regarding GGGGGCCACAGCAGAAGCGUUCACGUCGCGGCCCCUGUCAGAUUCUGGUGAAUCUGCGAAUCCUGCUGA, the self-cleavage was found to be 1.01. GGGGGCCACAGCAGAAGCGUUCACGUCGCGGCCCCUGUCAGAUUCUGGUGAAUCUGCGAAUCCUGCUGG: the self-cleavage is 0.984. For GGGGGCCACAGCAGAAGCGUUCACGUCGCGGCCCCUGUCAGAUUCUGGUGAAUCUGCGAAUCCUCCUGU, the self-cleavage is 0.488. Regarding GGGGGCCACAGCAGAAGCGUUCACGUCGCGGCCCCUGUCAGAUUCUGGUGAAUCUGCGAAGUCUGCUGG, the self-cleavage was 0.999. On to GGGGGCCACAGCAGAAGCGUUCACGUCGCGGCCCCUGUCAGAUUCUGGUGAAUCUGCGAAUACUGAUGU, for which the self-cleavage amounted to 0.499.

Regarding GGGGGCCACAGCAGAAGCGUUCACGUCGCGGCCCCUGUCAGAUUCUGGUGAAUCUGCGAAUACUGGUGU, the self-cleavage worked out at 0.458. As for GGGGGCCACAGCAGAAGCGUUCACGUCGCGGCCCCUGUCAGAUUCUGGUGAAUCUGCGAAGUCUUCUGU, the self-cleavage was 0.483.

For the variant GGGGGCCACAGCAGAAGCGUUCACGUCGCGGCCCCUGUCAGAUUCUGGUGAAUCUGCGAAGUCUACUGU, the self-cleavage was determined as 0.672.

GGGGGCCACAGCAGAAGCGUUCACGUCGCGGCCCCUGUCAGAUUCUGGUGAAUCUGCGAAUUAUGCUGC: the self-cleavage stood at 1.07.

As to GGGGGCCACAGCAGAAGCGUUCACGUCGCGGCCCCUGUCAGAUUCUGGUGAAUCUGCGAAUUAUGCUGG, the self-cleavage worked out at 0.991.

On to GGGGGCCACAGCAGAAGCGUUCACGUCGCGGCCCCUGUCAGAUUCUGGUGAAUCUGCGAAUUAUGCUGA, for which the self-cleavage was determined as 0.949.

In the case of GGGGGCCACAGCAGAAGCGUUCACGUCGCGGCCCCUGUCAGAUUCUGGUGAAUCUGCGAAGUCAGCUGU, the self-cleavage turned out to be 0.555. As for GGGGGCCACAGCAGAAGCGUUCACGUCGCGGCCCCUGUCAGAUUCUGGUGAAUCUGCGAAGUCGGCUGU, the self-cleavage was 0.397.

GGGGGCCACAGCAGAAGCGUUCACGUCGCGGCCCCUGUCAGAUUCUGGUGAAUCUGCGAAUUGUGAUGU: the self-cleavage came out at 0.248. Turning to GGGGGCCACAGCAGAAGCGUUCACGUCGCGGCCCCUGUCAGAUUCUGGUGAAUCUGCGAAUUGUGGUGU, the self-cleavage was 0.487. Regarding GGGGGCCACAGCAGAAGCGUUCACGUCGCGGCCCCUGUCAGAUUCUGGUGAAUCUGCGAAUUGUGUUGU, the self-cleavage was 0.387.

Turning to GGGGGCCACAGCAGAAGCGUUCACGUCGCGGCCCCUGUCAGAUUCUGGUGAAUCUGCGAAUACUGCUGA, the self-cleavage turned out to be 0.942. As to GGGGGCCACAGCAGAAGCGUUCACGUCGCGGCCCCUGUCAGAUUCUGGUGAAUCUGCGAAUACUGCUGG, the self-cleavage came out at 1. For GGGGGCCACAGCAGAAGCGUUCACGUCGCGGCCCCUGUCAGAUUCUGGUGAAUCUGCGAAUAAUGCUGU, the self-cleavage was 0.822. For GGGGGCCACAGCAGAAGCGUUCACGUCGCGGCCCCUGUCAGAUUCUGGUGAAUCUGCGAAUAGUGCUGU, the self-cleavage was determined as 0.481. Take GGGGGCCACAGCAGAAGCGUUCACGUCGCGGCCCCUGUCAGAUUCUGGUGAAUCUGCGAAUCCAGCUGU: the self-cleavage was 0.507.

In the case of GGGGGCCACAGCAGAAGCGUUCACGUCGCGGCCCCUGUCAGAUUCUGGUGAAUCUGCGAAUCCGGCUGU, the self-cleavage is 0.489. As to GGGGGCCACAGCAGAAGCGUUCACGUCGCGGCCCCUGUCAGAUUCUGGUGAAUCUGCGAAUCCCGCUGU, the self-cleavage worked out at 0.46. For the variant GGGGGCCACAGCAGAAGCGUUCACGUCGCGGCCCCUGUCAGAUUCUGGUGAAUCUGCGAAUUGGGCUGU, the self-cleavage amounted to 0.471. On to GGGGGCCACAGCAGAAGCGUUCACGUCGCGGCCCCUGUCAGAUUCUGGUGAAUCUGCGAAGUCUGCAGU, for which the self-cleavage was found to be 0.841. Take GGGGGCCACAGCAGAAGCGUUCACGUCGCGGCCCCUGUCAGAUUCUGGUGAAUCUGCGAAGUCUGCCGU: the self-cleavage stood at 0.708. On to GGGGGCCACAGCAGAAGCGUUCACGUCGCGGCCCCUGUCAGAUUCUGGUGAAUCUGCGAAUGCGGCUGU, for which the self-cleavage was 0.533.
